Patent publication US20250084158A1 (ABL BIO, published 2025)

T1: human CLL-1 on cells (human, UniProt Q5QGZ9 1-265)
T1 sequence (looked up): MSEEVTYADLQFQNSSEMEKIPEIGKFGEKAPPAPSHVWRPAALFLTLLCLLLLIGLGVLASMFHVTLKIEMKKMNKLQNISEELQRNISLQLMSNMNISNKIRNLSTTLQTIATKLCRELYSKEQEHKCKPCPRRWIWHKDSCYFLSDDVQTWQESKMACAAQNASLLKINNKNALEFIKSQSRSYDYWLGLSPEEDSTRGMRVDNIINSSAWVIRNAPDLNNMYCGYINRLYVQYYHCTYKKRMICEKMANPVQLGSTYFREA


Experiments:
human CLL-1 on cells [1] = molecular target: T1, human CLL-1 on cells; test: cell-based or functional assay
human CLL-1 on cells [2] = molecular target: T1, human CLL-1 on cells; test: hybridoma screening, ELISA and FACS
hFc-Human CLL1 = molecular target: T2, hFc-Human CLL1 (human); test: ELISA, coated antigen
T2 construct: Human CLL1 with N-terminal human IgG1 Fc, made in-house; also called hFc-huCLL1
Procedure: Antibody candidates of Example 1.2. were analyzed to compare the ligand binding activity by ELISA, using huCLL1-His and hFc-huCLL1 as ligands.
(§1) Briefly, the antigen (ligand) was coated overnight at 4VC. The antigen coated plate was blocked with 1% BSA in PBS at 4VC for 2 hr and incubated with antibodies at 4° C. for 2 hrs. To find out the EC₅₀ (nM) of each antibody, 4-fold serial dilutions were prepared from an antibody solution of a concentration of 50 nM to 0.2 pM and diluted antibodies were treated to each well, and the plate was washed with 1×PBST. Then Goat anti-Human IgG F(ab′)2 cross-adsorbed secondary antibody conjugated with HRP (horseradish peroxidase) (Thermo, 31414) was added to each well and incubated at 4° C. for 1 hr. After wash, a TMB (3,3′,5,5′-tetramethylbenzidine) substrate (Sigma, T0440) was added to each well and the OD at 450 nm was measured by an ELISA plate reader.

human CLL-1 on cells [3] = molecular target: T1, human CLL-1 on cells; test: FACS, EOL-1 cells (2nd Ab only 2.53)
Procedure: (§2) To evaluate cell binding property, the chimeric antibody candidates of Example 1.2. were analyzed in CLL1 negative cells (HEK293E and Jurkat) and various CLL1 expressing cancer cells by using FACS.
(§3) Briefly, cells were incubated with antibodies at 4° C. for 1 hr. Firstly, the cells were washed with an assay buffer (1% BSA in PBS). Then, an anti-human IgG Fc conjugated with FITC (Fluorescein isothiocyanate) (Sigma, F9512) was added to each well and incubated at 4° C. for 1 hr. After wash, the MFI (Median Fluorescence Intensity) of FITC was measured by BD FACS Cal ibur (BD Biosciences).

human CLL-1 on cells [4] = molecular target: T1, human CLL-1 on cells; test: FACS, U937 cells (2nd Ab only 4.77)
Procedure: as §2, §3

human CLL-1 on cells [5] = molecular target: T1, human CLL-1 on cells; test: FACS, PL21 cells (2nd Ab only 2.82)
Procedure: as §2, §3

hFc-Cynomolgus CLL1 = molecular target: T3, hFc-Cynomolgus CLL1 (cynomolgus); test: ELISA, 50 and 100 ng/well coated antigen; stronger than reference 6E7
T3 construct: Cynomolgus CLL1 with N-terminal human IgG1 Fc, made in-house
T3 sequence (chain, as listed by the source limits assumed): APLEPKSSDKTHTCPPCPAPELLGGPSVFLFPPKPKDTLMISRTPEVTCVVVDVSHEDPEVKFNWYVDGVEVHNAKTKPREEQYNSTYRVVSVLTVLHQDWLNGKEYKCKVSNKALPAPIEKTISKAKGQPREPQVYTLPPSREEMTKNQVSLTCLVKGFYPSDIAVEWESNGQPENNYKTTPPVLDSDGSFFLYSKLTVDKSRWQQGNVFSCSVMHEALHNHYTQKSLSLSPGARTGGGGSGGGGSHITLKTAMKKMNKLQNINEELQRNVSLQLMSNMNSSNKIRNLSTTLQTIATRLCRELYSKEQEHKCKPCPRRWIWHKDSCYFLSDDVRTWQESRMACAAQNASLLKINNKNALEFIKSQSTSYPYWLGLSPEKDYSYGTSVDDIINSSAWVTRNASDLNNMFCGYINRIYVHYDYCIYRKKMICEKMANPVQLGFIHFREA
Procedure: as §1
Continuously, antibody candidates of Example 1.2. were analyzed to compare the ligand binding activities by ELISA, using 50 ng/well and 100 ng/well of hFc-Cynomolgus CLL1 as a ligandin the same manner as described above. Genentech's anti-CLL-1 antibody 6E7 was used as a reference.

human CLL-1 on cells [6] = molecular target: T1, human CLL-1 on cells; test: FACS, huCLL1_293E cells (2nd Ab only 5.05)
Procedure: as §2, §3

human CLL-1 on cells [7] = molecular target: T1, human CLL-1 on cells; test: FACS, OCI-AML2 cells (2nd Ab only 3.28)
Procedure: as §2, §3

human CLL-1 on cells [8] = molecular target: T1, human CLL-1 on cells; test: FACS, HL60 cells (2nd Ab only 5.09)
Procedure: as §2, §3

| ADCC reporter bioassay (luminescence), EC50 (human CLL-1 on cells [1]) [nM] | MFI(FL1-H) (human CLL-1 on cells [3]) | MFI(FL1-H) (human CLL-1 on cells [4]) | MFI(FL1-H) (human CLL-1 on cells [5]) | MFI(FL1-H) (human CLL-1 on cells [6]) | MFI(FL1-H) (human CLL-1 on cells [7]) | MFI(FL1-H) (human CLL-1 on cells [8]) | Binder | also measured |
| --- | --- | --- | --- | --- | --- | --- | --- | --- |
| 0.13 |  |  |  |  |  |  | hu16C6 (VH1/VL1(M14)) (antibody, V domains shown) VH: QVQLVQSGAEVKKPGASVKISCKASGYSFTGYYMHWVKQSHGQGLEWIGHVNPYNGATSFNRNFKDRASLTVDTSTSTVYMELSSLRSEDSAVYYCGRSAYGYYERHFDYWGQGTLVTVSS VL: DIVMTQSPDSLAVSLGERATINCKASQSVDYDADSYMNWYQQKPGQPPKLLIYAASNLQSGVPDRFSGSGSGTDFTLTISSLQAEDVAVYYCQQSDRDPLTFGGGTKLEIK |  |
| 0.141 |  |  |  |  |  |  | hu33C2 (VH3/VL6 (M12)) (antibody, V domains shown) VH: QVQLVQSGAEVKKPGASVKVSCKASGYSFTGYAMNWVRQAPGQRLEWIGLINPYNGGAMYNQKFKGRATLTVDTSASTAYMELSSLRSEDTAVYYCARDYRYEGHLDYWGQGTLVTVSS VL: EIVLTQSPATLSLSPGERATLSCSATSSVSYMHWYQQKPGQAPRRWIYDTSKLASGIPARFSGSGSGTSYTLTISSLEPEDFAVYYCQQWSSDSPTFGQGTKLEIK |  |
|  |  |  |  |  |  |  | 16C6 (mouse hybridoma clone) (antibody, V domains shown, Mouse monoclonal antibody from a Balb/c hybridoma; also called murine 16C6) VH: EVQLQQSGPELVKPGASVKISCKASGYSFTGYYMHWVKQSHVKSLEWIGHVNPYNGATSFNRNFKDKASLTVDKSSSTAYMELHSLTSEDSAVYYCGRSADGYYERHFDYWGQGTTLTVSS VL: DIVLTQSPASLAVSLGQRATISCKASQSVDYDGDSYMNWYQQKPGQPPKLLIYAASNLQSGIPARFSGSGSGTDFTLNIHPVEEEDAATYYCQQSDKDPLTFGAGTKLELK | binding result (human CLL-1 on cells [2]): binds |
|  | 3.73 | 45.8 | 38.6 | 115 | 19.5 | 18.5 | ch16C6(NA) (antibody, human IgG1, kappa, N297A, V domains shown, also called chimeric antibody of 16C6) VH: EVQLQQSGPELVKPGASVKISCKASGYSFTGYYMHWVKQSHVKSLEWIGHVNPYNGATSFNRNFKDKASLTVDKSSSTAYMELHSLTSEDSAVYYCGRSAYGYYERHFDYWGQGTTLTVSS VL: DIVLTQSPASLAVSLGQRATISCKASQSVDYDADSYMNWYQQKPGQPPKLLIYAASNLQSGIPARFSGSGSGTDFTLNIHPVEEEDAATYYCQQSDRDPLTFGAGTKLELKR | binding result (hFc-Human CLL1): binds; binding result (hFc-Cynomolgus CLL1): binds |
| 0.416 |  |  |  |  |  |  | ch84A2 (N12S) (antibody, V domains shown) VH: EVQLQQSGPELVKSGASVKMSCKASGYTFTSYVIHWVKQMPGQGLEWIGLFNPYNDDVNYNEKFKGKATLTSDKYSSTAYLDLSSLTSEDSAVYYCAREGVHYGRPWFGYWGQGTLVTVSA VL: DIKMTQSPSSMSASLGERVTITCKASQDIKSYLNWFQQKPGKSPKTLIYRASRLVDGVPARFSGSESGQDYSLTISSLEFEDMGIYYCLQYDEFPLTFGAGTKLELK |  |
|  | 3.36 | 30.5 | 27.6 | 72.5 | 13 | 14.5 | ch84A2(NA/N12S) (antibody, human IgG1, kappa, N297A, V domains shown, Chimeric, human IgG1 N297A and human kappa; also called ch84C2; chimeric antibody of 84A2) VH: EVQLQQSGPELVKSGASVKMSCKASGYTFTSYVIHWVKQMPGQGLEWIGLFNPYNDDVNYNEKFKGKATLTSDKYSSTAYLDLSSLTSEDSAVYYCAREGVHYGRPWFGYWGQGTLVTVSA VL: DIKMTQSPSSMSASLGERVTITCKASQDIKSYLNWFQQKPGKSPKTLIYRASRLVDGVPARFSGSESGQDYSLTISSLEFEDMGIYYCLQYDEFPLTFGAGTKLELKR |  |
|  | 3.6 | 48.1 | 38.8 | 77.7 | 19.3 | 19.1 | ch33C2(NA) (antibody, human IgG1, kappa, N297A, V domains shown, also called chimeric antibody of 33C2) VH: EVQLQQSGPELVKPGASMKISCKASGYSFTGYAMNWVKQSHGKNLEWIGLINPYNGGAMYNQKFKGKATLTVDKSTSTAYMELLSLTSEDSAVYYCARDYRYEGHLDYWGQGTTLTVSS VL: QIVLTQSPVIMSASPGEKVTMTCSATSSVSYMHWYQQKSGTSPKRWIYDTSKLASGVPVRFSGSGSGTSYSLTISRMEAEDAATYYCQQWSSDSPTFGVGTKLELKR | binding result (hFc-Human CLL1): binds; binding result (hFc-Cynomolgus CLL1): binds |
|  |  |  |  |  |  |  | 33C2 (mouse hybridoma clone) (antibody, V domains shown, Mouse monoclonal antibody from a Balb/c hybridoma; also called murine 33C2) VH: EVQLQQSGPELVKPGASMKISCKASGYSFTGYAMNWVKQSHGKNLEWIGLINPYNGGAMYNQKFKGKATLTVDKSTSTAYMELLSLTSEDSAVYYCARDYRYDGHLDYWGQGTTLTVSS VL: QIVLTQSPVIMSASPGEKVTMTCSATSSVSYMHWYQQKSGTSPKRWIYDTSKLASGVPVRFSGSGSGTSYSLTISRMEAEDAATYYCQQWSSDSPTFGVGTKLELK | binding result (human CLL-1 on cells [2]): binds |
